According to patent US20200079855A1 (Pfizer, published 2020):
Several values for one entry are separate records, joined by “and”; a condition that tells them apart may be missing. Identical values can stand only once.

T1: recombinant cynomolgus monkey αvβ8 integrin (cynomolgus monkey, limits assumed)
T1 construct: Recombinant protein immobilised on the Biacore chip; also called cyno αvβ8; cynomolgus αvβ8
T1 chain 1: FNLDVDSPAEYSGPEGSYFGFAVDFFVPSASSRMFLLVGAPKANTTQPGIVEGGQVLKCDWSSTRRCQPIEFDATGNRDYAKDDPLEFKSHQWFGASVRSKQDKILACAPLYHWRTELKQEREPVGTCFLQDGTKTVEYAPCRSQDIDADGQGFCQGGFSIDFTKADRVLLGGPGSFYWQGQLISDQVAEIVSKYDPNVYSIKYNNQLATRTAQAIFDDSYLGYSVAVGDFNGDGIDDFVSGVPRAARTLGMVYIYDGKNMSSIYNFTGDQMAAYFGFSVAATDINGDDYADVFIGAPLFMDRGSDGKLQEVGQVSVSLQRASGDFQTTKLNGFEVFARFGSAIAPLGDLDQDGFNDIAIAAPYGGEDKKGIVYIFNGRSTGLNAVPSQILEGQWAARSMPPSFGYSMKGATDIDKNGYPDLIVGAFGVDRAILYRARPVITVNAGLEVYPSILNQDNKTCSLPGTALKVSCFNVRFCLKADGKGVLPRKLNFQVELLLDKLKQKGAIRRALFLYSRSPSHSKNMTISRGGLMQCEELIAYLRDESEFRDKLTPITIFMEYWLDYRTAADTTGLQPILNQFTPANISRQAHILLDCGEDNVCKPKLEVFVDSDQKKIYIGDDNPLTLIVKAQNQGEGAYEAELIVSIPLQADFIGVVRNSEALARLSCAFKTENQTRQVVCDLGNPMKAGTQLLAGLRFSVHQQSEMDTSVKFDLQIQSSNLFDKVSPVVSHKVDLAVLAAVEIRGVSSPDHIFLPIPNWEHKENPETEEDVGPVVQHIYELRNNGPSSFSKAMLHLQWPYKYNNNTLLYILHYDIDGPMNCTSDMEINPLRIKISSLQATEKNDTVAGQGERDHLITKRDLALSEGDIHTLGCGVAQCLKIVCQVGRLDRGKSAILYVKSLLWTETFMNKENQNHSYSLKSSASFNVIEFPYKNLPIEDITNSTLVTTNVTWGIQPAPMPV
T1 chain 2: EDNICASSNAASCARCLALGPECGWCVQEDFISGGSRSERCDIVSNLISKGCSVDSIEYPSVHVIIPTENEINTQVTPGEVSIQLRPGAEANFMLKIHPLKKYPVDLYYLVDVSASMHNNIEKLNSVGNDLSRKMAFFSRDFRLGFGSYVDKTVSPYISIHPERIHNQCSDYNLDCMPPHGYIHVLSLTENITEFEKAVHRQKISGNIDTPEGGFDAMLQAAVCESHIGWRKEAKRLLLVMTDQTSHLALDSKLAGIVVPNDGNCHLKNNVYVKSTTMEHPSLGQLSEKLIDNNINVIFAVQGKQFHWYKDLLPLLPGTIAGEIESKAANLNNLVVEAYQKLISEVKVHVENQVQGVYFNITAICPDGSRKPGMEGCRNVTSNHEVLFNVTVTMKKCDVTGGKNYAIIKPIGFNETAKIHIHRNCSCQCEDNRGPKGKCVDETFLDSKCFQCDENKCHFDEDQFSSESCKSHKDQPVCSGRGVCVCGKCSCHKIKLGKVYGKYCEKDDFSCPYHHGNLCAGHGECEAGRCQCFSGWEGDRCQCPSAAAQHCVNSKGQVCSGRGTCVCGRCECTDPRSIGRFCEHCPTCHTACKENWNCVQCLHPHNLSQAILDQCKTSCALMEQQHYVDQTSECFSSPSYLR


Columns and labels:
[1] = target: T2, human αvβ8 integrin on U251 cells (human, UniProt P06756 31-1048); experiment: cell-based or functional assay
[2] = target: recombinant human αvβ8 integrin (human) (UniProt P06756); experiment: ELISA on human αvβ8 (legend box: human avb8), mAb titration
[3] = target: T3, recombinant human αvβ3 integrin (human, UniProt P06756 31-992; P05106 27-718); experiment: ELISA (title Specificity Binding ELISA), absorbance 450 nm against [mAb] (nM)
T3 construct: Used in ELISA and immobilised on the Biacore chip; construct not described; also called hαvβ3; AVB3
T3 sequence (P05106 27-718 limits assumed, one chain of several): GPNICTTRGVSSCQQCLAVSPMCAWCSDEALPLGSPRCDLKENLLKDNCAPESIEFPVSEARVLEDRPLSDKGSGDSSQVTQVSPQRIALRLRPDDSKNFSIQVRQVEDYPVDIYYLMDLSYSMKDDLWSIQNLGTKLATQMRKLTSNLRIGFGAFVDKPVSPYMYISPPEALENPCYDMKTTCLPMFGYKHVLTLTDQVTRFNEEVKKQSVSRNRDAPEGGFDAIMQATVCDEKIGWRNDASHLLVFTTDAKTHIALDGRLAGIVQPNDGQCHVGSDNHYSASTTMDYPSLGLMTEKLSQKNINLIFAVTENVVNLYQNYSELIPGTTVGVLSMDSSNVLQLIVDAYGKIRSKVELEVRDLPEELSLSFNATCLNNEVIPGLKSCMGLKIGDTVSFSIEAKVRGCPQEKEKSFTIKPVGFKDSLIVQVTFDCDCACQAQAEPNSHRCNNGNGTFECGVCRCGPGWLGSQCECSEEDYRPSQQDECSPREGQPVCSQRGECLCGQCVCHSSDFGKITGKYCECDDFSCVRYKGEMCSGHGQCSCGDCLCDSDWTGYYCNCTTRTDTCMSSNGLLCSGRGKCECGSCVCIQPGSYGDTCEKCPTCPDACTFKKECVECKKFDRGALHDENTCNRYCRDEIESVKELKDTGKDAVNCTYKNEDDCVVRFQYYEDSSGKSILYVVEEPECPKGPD

[4] = target: T4, recombinant human αvβ6 integrin (human, UniProt P06756 31-992; P18564 22-707); experiment: as above
T4 construct: Used in ELISA and immobilised on the Biacore chip; construct not described; also called hαvβ6; AVB6
T4 sequence (P18564 22-707 limits assumed, one chain of several): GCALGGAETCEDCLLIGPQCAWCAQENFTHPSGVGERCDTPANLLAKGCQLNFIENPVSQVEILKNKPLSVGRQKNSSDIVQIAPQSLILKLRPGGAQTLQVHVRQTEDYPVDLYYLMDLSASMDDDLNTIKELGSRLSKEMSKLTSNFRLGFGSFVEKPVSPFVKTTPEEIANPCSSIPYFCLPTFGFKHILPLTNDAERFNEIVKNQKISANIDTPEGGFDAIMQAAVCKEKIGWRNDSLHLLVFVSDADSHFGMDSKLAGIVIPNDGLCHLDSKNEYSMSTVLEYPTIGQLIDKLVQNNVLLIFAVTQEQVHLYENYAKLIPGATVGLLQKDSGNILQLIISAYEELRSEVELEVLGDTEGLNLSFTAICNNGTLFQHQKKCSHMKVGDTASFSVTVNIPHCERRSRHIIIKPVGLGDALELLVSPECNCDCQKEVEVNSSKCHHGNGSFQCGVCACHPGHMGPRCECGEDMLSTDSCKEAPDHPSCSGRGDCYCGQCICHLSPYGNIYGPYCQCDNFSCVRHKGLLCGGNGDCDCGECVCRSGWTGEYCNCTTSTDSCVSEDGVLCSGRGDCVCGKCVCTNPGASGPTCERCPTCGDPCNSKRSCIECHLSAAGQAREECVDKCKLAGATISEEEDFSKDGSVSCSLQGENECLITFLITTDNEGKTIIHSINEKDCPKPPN

[5] = target: T3, recombinant human αvβ3 integrin; experiment: SPR (Biacore)
[6] = target: T4, recombinant human αvβ6 integrin; experiment: SPR (Biacore)
[7] = target: T2, human αvβ8 integrin on U251 cells; experiment: cell-based or functional assay; remark: listed apart in the source
[8] = target: recombinant human αvβ8 integrin (human) (UniProt P06756); experiment: SPR (Biacore), Fab affinity of Table 3
[9] = target: recombinant human αvβ8 integrin (human) (UniProt P06756); experiment: SPR (Biacore T200), Fab over biotinylated recombinant αvβ8 on streptavidin chip, n>=3
[10] = target: T5, recombinant mouse αvβ8 integrin (mouse, UniProt P43406 31-988; Q0VBD0 22-681, limits assumed); experiment: as above
T5 construct: Recombinant protein immobilised on the Biacore chip
T5 sequence (P43406 31-988 limits assumed, chain 1 of 2): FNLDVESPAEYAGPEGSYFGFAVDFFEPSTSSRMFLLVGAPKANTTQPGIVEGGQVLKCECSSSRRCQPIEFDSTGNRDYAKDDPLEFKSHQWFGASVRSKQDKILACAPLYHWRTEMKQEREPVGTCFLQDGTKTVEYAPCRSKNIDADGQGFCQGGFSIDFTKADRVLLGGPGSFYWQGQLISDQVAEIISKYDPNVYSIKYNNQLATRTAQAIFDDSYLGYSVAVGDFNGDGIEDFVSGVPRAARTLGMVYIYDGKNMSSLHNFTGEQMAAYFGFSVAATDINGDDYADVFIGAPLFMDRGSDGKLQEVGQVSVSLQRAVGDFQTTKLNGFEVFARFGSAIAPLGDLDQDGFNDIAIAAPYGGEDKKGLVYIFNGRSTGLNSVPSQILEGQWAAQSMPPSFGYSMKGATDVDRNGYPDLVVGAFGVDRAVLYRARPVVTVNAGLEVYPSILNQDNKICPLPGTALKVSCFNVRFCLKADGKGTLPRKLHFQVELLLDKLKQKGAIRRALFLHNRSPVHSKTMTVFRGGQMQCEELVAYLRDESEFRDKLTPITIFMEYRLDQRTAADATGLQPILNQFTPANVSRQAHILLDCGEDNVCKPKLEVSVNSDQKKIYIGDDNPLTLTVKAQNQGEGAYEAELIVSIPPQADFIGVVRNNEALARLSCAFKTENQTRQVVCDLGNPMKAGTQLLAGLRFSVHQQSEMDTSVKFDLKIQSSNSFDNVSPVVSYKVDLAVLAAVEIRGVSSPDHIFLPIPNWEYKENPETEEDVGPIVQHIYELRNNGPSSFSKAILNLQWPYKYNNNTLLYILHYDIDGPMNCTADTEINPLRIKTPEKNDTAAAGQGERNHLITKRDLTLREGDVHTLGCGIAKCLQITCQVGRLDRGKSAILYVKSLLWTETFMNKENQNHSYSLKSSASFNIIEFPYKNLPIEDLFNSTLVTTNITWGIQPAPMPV
T5 sequence (Q0VBD0 22-681 limits assumed, chain 2 of 2): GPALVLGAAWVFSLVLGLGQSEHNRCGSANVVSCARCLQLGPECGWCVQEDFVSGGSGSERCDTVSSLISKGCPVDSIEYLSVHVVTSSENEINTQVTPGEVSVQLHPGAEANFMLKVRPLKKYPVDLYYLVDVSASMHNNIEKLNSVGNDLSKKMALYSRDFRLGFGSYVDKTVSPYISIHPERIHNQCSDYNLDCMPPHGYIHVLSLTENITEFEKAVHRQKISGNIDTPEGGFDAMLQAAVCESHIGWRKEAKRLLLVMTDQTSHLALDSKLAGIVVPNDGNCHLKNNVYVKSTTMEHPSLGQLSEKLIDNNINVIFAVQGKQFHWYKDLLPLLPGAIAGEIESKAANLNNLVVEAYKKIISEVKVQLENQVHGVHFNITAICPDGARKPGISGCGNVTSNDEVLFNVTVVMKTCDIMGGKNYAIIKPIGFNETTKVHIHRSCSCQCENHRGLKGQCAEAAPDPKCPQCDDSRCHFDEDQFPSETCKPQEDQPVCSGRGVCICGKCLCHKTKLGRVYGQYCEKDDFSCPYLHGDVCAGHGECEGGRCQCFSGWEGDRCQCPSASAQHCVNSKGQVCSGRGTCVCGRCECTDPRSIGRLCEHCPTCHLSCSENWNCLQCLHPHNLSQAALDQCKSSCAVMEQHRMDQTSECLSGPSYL
Procedure: (§1) More specifically, recombinant αvβ8 integrin (e.g., R&D Systems) was biotin labeled via primary amines and immobilized on a Sensor Chip SA using a Biacore™ T200 instrument (GE Healthcare Life Sciences). Fab binding experiments were performed at 25° C. using a 30 μl/min flow rate in 0.01 M HEPES pH 7.4, 0.15 M NaCl, 1-2 mM MgCl₂, and 0.005% v/v surfactant P20 (HBS-P) buffer. Association was monitored for 5-10 minutes and dissociation for a further 15-20 minutes for each Fab concentration. After each injection, the chip surface was regenerated with IgG elution buffer (Thermo Fisher Scientific). All data was analyzed using the Biacore™ T200 Evaluation software. Data was dual background subtracted using the adjacent flow cell coupled with streptavidin without captured integrin, and buffer only injections. Kinetic constants for at least three experiments were obtained and reported as the mean.
(§2) To evaluate the monomeric KD of the Fab ADWA11 2.4, also referred to herein as ADWA-11 VH05-2/VK01(2.4) and ADWA11 5-2 2.4, and the parental mouse IgG, recombinant human, cynomolgus, mouse, and rat αvβ8 was immobilized on a Biacore chip and the ka and kd of the Fabs were determined as generally described herein (Table 6).

[11] = target: T1, recombinant cynomolgus monkey αvβ8 …; experiment: as above
Procedure: as §1, §2

[12] = target: recombinant human αvβ8 integrin (human) (UniProt P06756); experiment: SPR (Biacore), Fab over immobilised recombinant αvβ8; the upper end is the human value of Tables 3 and 6
[13] = target: T2, human αvβ8 integrin on U251 cells; experiment: apparent KD, flow cytometry on U251 cells
[14] = target: T2, human αvβ8 integrin on U251 cells; experiment: flow cytometry, IgG binding to U251 cells (ΔMFI, background subtracted); EC50 unit inferred, axis Log10 [Ab] (nM); Table 7 of the text gives the rounded value as U251 app KD 823 pM
[15] = target: T2, human αvβ8 integrin on U251 cells; experiment: flow cytometry, IgG binding to U251 cells (ΔMFI, background subtracted); EC50 unit inferred, axis Log10 [Ab] (nM); Table 7 of the text gives U251 app KD 430 pM
[16] = target: recombinant human αvβ8 integrin (human) (UniProt P06756); experiment: ELISA (DELFIA counts) on human αvβ8, Fab titration
Target sequence in this assay (P06756 31-992 limits assumed, form in doubt, chain 1 of 2): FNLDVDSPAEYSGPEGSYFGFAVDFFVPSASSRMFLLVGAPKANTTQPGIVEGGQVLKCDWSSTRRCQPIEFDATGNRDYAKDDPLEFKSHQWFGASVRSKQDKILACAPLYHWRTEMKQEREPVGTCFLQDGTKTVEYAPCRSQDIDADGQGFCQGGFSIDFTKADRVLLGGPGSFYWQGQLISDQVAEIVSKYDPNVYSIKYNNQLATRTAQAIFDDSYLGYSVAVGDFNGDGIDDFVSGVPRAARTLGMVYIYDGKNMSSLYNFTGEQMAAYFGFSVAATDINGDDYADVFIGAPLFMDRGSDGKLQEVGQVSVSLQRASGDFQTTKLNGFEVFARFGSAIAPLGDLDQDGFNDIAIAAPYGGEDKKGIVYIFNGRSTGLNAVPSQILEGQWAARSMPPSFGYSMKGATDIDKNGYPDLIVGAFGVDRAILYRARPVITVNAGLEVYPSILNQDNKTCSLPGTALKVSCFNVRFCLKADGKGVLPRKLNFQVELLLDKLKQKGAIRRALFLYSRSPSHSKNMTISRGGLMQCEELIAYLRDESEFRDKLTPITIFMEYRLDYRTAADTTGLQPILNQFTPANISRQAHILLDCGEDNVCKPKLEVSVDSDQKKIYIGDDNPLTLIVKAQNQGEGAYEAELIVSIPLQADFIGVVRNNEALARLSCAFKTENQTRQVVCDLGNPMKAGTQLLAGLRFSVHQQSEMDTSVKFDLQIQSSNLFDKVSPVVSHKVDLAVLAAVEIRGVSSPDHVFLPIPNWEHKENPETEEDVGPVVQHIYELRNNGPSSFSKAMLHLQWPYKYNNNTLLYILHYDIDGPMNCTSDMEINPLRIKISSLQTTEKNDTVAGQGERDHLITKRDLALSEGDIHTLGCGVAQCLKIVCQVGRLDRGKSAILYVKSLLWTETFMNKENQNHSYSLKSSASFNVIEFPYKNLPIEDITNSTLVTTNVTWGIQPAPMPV
Target sequence in this assay (chain, as listed by the source limits assumed, form in doubt, chain 2 of 2): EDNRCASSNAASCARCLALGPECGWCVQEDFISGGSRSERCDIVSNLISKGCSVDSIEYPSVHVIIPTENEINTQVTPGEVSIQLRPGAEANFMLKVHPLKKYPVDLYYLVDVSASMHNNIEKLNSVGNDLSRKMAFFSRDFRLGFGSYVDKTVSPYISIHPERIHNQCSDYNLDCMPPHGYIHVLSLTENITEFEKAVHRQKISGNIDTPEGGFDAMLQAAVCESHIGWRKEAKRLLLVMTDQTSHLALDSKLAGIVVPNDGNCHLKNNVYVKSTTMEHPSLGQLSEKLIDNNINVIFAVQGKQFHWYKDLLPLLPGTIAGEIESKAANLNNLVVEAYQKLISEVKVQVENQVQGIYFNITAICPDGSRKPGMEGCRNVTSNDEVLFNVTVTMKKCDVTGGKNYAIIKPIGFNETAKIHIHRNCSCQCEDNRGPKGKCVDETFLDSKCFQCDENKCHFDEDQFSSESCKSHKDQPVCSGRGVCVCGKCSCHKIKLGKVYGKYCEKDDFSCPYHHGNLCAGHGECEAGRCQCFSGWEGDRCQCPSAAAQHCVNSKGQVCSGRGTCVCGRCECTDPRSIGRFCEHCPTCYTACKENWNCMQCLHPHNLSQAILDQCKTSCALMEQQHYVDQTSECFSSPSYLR

[17] = target: T6, recombinant rat αvβ8 integrin (rat, UniProt F1LZX9 31-987; A0A0G2JVU1 43-682); experiment: SPR (Biacore T200), Fab over biotinylated recombinant αvβ8 on streptavidin chip, n>=3
T6 construct: Recombinant protein immobilised on the Biacore chip
Procedure: as §1, §2

[18] = target: recombinant human αvβ8 integrin (human) (UniProt P06756); experiment: ELISA (DELFIA counts) on human αvβ8, Fab titration; identity of the molecule see the row before

IgG Potency TGFB Assay IC50 (pM) [1] [pM] | EC50 value measured by apparent affinity in the TGF-β transactivation assay [7] [nM] | Kd [8] | Kd [9] [nM] | koff [9] [s⁻¹] | kon [9] [M⁻¹ s⁻¹] | Kd [10] [nM] | koff [10] [s⁻¹] | kon [10] [M⁻¹ s⁻¹] | Kd [11] [nM] | koff [11] [s⁻¹] | kon [11] [M⁻¹ s⁻¹] | Kd [13] [nM] | Binder | also measured
183 | – | – | – | – | – | – | – | – | – | – | – | – | Mouse hybridoma antibody ADWA-11 (antibody, V domains shown, Whole native murine IgG from the hybridoma; also called mADWA11; mADWA-11) VH: EVQLQQSGAELVRPGAFVKLSCKASGFNIKDYYMNWVLQRPEQGLEWIGWIDPDNGNTIYDPKFQGKASITADTSSNTAYLQLSSLTSEDTAVYYCARRLLMDYWGQGTSVTVSS VL: DIVMTQAAPSVPVTPGESVSISCRSTKSLLHFNGNTYLFWFLQRPGQSPQRLIYYMSNLASGVPDRFSGRGSGTDFTLRISRVEAEDVGVYYCMQSLEYPFTFGTGTKLEIK | EC50 (read off the curve) [2]: 0.3 nM; binding result [3]: no binding (tested: about 500 nM); binding result [4]: no binding (tested: about 500 nM)
– | 4.6 | 0.536 nM | 0.536 | 4.86e-05 | 92200 | 0.489 | 5.03e-05 | 103000 | 0.507 | 4.97e-05 | 98100 | – | Mouse hybridoma ADWA-11 Fab (Fab, V domains shown, Fab; also called mFab; Ms ADWA11 Fab) VH: EVQLQQSGAELVRPGAFVKLSCKASGFNIKDYYMNWVLQRPEQGLEWIGWIDPDNGNTIYDPKFQGKASITADTSSNTAYLQLSSLTSEDTAVYYCARRLLMDYWGQGTSVTVSS VL: DIVMTQAAPSVPVTPGESVSISCRSTKSLLHFNGNTYLFWFLQRPGQSPQRLIYYMSNLASGVPDRFSGRGSGTDFTLRISRVEAEDVGVYYCMQSLEYPFTFGTGTKLEIK | binding result [5]: no binding; binding result [6]: no binding; kon [8]: 92200 M⁻¹ s⁻¹; Kd [12]: 0.489 to 0.536 nM

More lines, now with the values behind:

Binder | IgG Potency TGFB Assay IC50 (pM) [1] [pM] | EC50 value measured by apparent affinity in the TGF-β transactivation assay [7] [nM] | Kd [8] | Kd [9] [nM] | koff [9] [s⁻¹] | kon [9] [M⁻¹ s⁻¹] | Kd [10] [nM] | koff [10] [s⁻¹] | kon [10] [M⁻¹ s⁻¹] | Kd [11] [nM] | koff [11] [s⁻¹] | kon [11] [M⁻¹ s⁻¹] | Kd [13] [nM] | also measured
ADWA-11_4 mut (antibody, mouse IgG1, V domains shown) VH: EVQLQQSGAELVRPGAFVKLSCKASGFNIKDYYMNWVLQRPEQGLEWIGWIDPDNGNTIYDPKFQGKASITADTSSNTAYLQLSSLTSEDTAVYYCARRLLMDYWGQGTSVTVSS VL: DIVMTQAAPSVPVTPGESVSISCRSTKSLLHFNGNTYLFWFLQRPGQSPQRLIYYMSNLASGVPDRFSGRGSGTDFTLRISRVEAEDVGVYYCMQSLEYPFTFGTGTKLEIK | – | – | – | – | – | – | – | – | – | – | – | – | 0.823 | EC50 [14]: 0.823 nM
hIgG_VH05VK01 (antibody, V domains shown) VH: EVQLVESGGGLVQPGGSLRLSCAASGFNIKDYYMNWVRQAPGKGLEWVGWIDPDNGNTIYDPKFQGRFTISADTSKNSAYLQMNSLRAEDTAVYYCARRLLMDYWGQGTLVTVSS VL: DIQMTQSPSSLSASVGDRVTITCRSTKSLLHFNGNTYLFWYQQKPGKAPKRLIYYMSNLASGVPSRFSGSGSGTDFTLTISSLQPEDFATYYCMQSLEYPFTFGQGTKVEIKR | 148 | – | – | – | – | – | – | – | – | – | – | – | 0.43 | EC50 [15]: 0.434 nM
ADWA11 VH05/VK01 Fab (Fab, V domains shown, Fab; also called VH05-2_VK01 parental) VH: EVQLVESGGGLVQPGGSLRLSCAASGFNIKDYYMNWVRQAPGKGLEWVGWIDPDNGNTIYDPKFQGRFTISADTSKNSAYLQMNSLRAEDTAVYYCARRLLMDYWGQGTLVTVSS VL: DIQMTQSPSSLSASVGDRVTITCRSTKSLLHFNGNTYLFWYQQKPGKAPKRLIYYMSNLASGVPSRFSGSGSGTDFTLTISSLQPEDFATYYCMQSLEYPFTFGQGTKVEIK | – | 1.3 | 0.05 nM and < 0.1 nM | 0.118 | 2.37e-05 | 200000 | ≤ 0.1 | ≤ 2e-05 | 220000 | ≤ 0.1 | ≤ 2e-05 | 225000 | – | fold lower KD than the mouse hybridoma antibody ADWA-11 [8]: > 5 fold; EC50 (read off the curve) [16]: 1 nM; Kd [17]: 0.16 nM; koff [17]: 3.1e-05 s⁻¹; kon [17]: 194000 M⁻¹ s⁻¹; EC50 (read off the curve) [18]: 1 nM
